B1: HDV Ribozyme (parent)
chain: GGCCGGCAUGGUCCCAGCCUCCUCGCUGGCGCCGGCUGGGCAACAUUCCGAGGGGACCGUCCCCUCGGUAAUGGCGAAUGGGACCCA

The values below come from the RNAGym collection of RNA variant scans (doi:10.7554/elife.80360).

In this data set the parent is B1. In words: self-cleavage, relative activity (ratio to wild type); higher = more cleavage; co-transcriptional.
Consider GGCCGGCAUGGUCCCAGCCUCCUCGCUGGCGCCGGCUGGGCAACAUUCCGAUGGGACCGUCCACUCGGUAAUGGCGAAUGGGACCCA [G52U C63A], for which the self-cleavage worked out at 0.806. To UGCCGGGAUGGUCCCAGCCUCCUCGCUGGCGCCGGCUGGGCAACAUUCCGAGGGGACCGUCCCCUCGGUAAUGGCGAAUGGGACCCA [G1U C7G] belongs 0.332; to GGCCGGCAUGGUCCCAGCCUCCUCGCUGGCCCCGGCUGGGCAACAUUCCGAGGGGACCGUCCCCUCGGUGAUGGCGAAUGGGACCCA [G31C A70G], 0.285; to GGCCGGCAUGGUCCCAGCCUCCUCGCUGGCGCCGGCUGUGCAACAUUCUGAGGGGACCGUCCCCUCGGUAAUGGCGAAUGGGACCCA [G39U C49U], 0.649. To GGCCGGCAUGGUCCCAGCCUCCUCGCUGGGGCCGGCUGGGCCACAUUCCGAGGGGACCGUCCCCUCGGUAAUGGCGAAUGGGACCCA [C30G A42C] belongs 0.151; to GGCCGGCAUGGUCCCAGCCUCCUCGCUGGCGCCGGCUGGGCAAAAUUCCGAGGGGACCGUCCCCGCGGUAAUGGCGAAUGGGACCCA [C44A U65G], 0.85; to GGCCGGCAUGGUCCCAGCCUCCUCGCUGCCGCCGGCUGGGCAACAUUCCGAGGGGACCGUCCCCUCAGUAAUGGCGAAUGGGACCCA [G29C G67A], 0.0739.

Consider GGCCGGCAUGGUCCCAGCCUCCUCGCUGUCGCCGGCUGGGCAACAUUCCGAGGGGACCGUCCCCUCGGUAAUGGCGAAUGGAACCCA [G29U G82A], for which the self-cleavage was 0.0282. The figure for GGCCGUCAUGAUCCCAGCCUCCUCGCUGGCGCCGGCUGGGCAACAUUCCGAGGGGACCGUCCCCUCGGUAAUGGCGAAUGGGACCCA [G6U G11A] is 0.0437. The figure for AGGCGGCAUGGUCCCAGCCUCCUCGCUGGCGCCGGCUGGGCAACAUUCCGAGGGGACCGUCCCCUCGGUAAUGGCGAAUGGGACCCA [G1A C3G] is 0.227; for GGGCGGCAUGGUCCCAGCCUCCUCGCUGGCGCCGGCUGGGCAACAUUCCGAGGGGACCGUCCCCUCGGUAAUGGCGAAUGGAACCCA [C3G G82A] it is 0.19; for GGCCGGCAUGGUCCCAGCCUCUUCGCUGGCGCCGGCCGGGCAACAUUCCGAGGGGACCGUCCCCUCGGUAAUGGCGAAUGGGACCCA [C22U U37C] it is 0.415.

Regarding GGCCGGCAUGGUCCCAGCCUCCUCGCUGGCGCCGGCUGGGCAACAUUCCGAGGGGACCGUCCCCUCGGUAAUGGCGAAUCGGACGCA [G80C C85G], the self-cleavage was found to be 0.205. The figure for GGCCGGCAAGGUCCCAGCCUCCUCCCUGGCGCCGGCUGGGCAACAUUCCGAGGGGACCGUCCCCUCGGUAAUGGCGAAUGGGACCCA [U9A G25C] is 0.0615. To UGCCGGCAUGGUCACAGCCUCCUCGCUGGCGCCGGCUGGGCAACAUUCCGAGGGGACCGUCCCCUCGGUAAUGGCGAAUGGGACCCA [G1U C14A] belongs 0.222.

Turning to GGCCGGCUUGGUCCCAGCCUCCUCACUGGCGCCGGCUGGGCAACAUUCCGAGGGGACCGUCCCCUCGGUAAUGGCGAAUGGGACCCA [A8U G25A], the self-cleavage was determined as 0. To GGCCGGCAUGCUCCCAGCCUCCUCGCUGGCGCCGGCUGGGCAACAUUCCGAGGGGACCGUCCCCUCGGUAAUGGCGAAUCGGACCCA [G11C G80C] belongs 0.295; to GGCCGGCAUGGUCCCUGCCUCCUCGCUGGCGCCGGCUGGGCAACAUUCCGAGGGGACCGUCCCCUCGGUAAUGGCGAAUGAGACCCA [A16U G81A], 0.813. To GGCCGGCAUGGUCCCAGCCUCCUCGCUGGCGCCGGCUGGGCAACAUUCCGAGGGGAUCGUCCCCUCGGUAAUGGCGAAUGGGACCCG [C57U A87G] belongs 0.979; to GGCCGGCAUGGUCCCAGCCUCCUCGCUGGCGCCGGCUGGGCAACACUCCGAGGGGACCGUCCCCUCGGGAAUGGCGAAUGGGACCCA [U46C U69G], 1.08. On to GGCCGGCAUCGUCCCAGCCUCCUCGCUGGCGCCGGCUGGGCAACAUACCGAGGGGACCGUCCCCUCGGUAAUGGCGAAUGGGACCCA [G10C U47A], for which the self-cleavage came to 0.853. The figure for GGCCGGCAUGGUCCCAGCCUCCUCGCUGGCGCCGGCUGGGCAACAUUCGGAGGGGACCGUCCCCUCGGUAAUGGUGAAUGGGACCCA [C49G C75U] is 0.201; for GGCCGGCAUGGCCCCAGCCUCCUCGCUGGGGCCGGCUGGGCAACAUUCCGAGGGGACCGUCCCCUCGGUAAUGGCGAAUGGGACCCA [U12C C30G] it is 0.0573; for GGCCGGCAUCGUCCCAGCCUCCUCGCUGGCGCCGGCUGGGCAACAUUCCGAGGGGACCUUCCCCUCGGUAAUGGCGAAUGGGACCCA [G10C G59U] it is 0.815. The figure for GGCCGGCAUGGUCCCUGCCUCCUCGCUGGCGCCGGCUGGGAAACAUUCCGAGGGGACCGUCCCCUCGGUAAUGGCGAAUGGGACCCA [A16U C41A] is 0.87; for GGCCGGCACGGUCCCAGCCUCCUCGCUGGCGCCGGCUGGGCAACCUUCCGAGGGGACCGUCCCCUCGGUAAUGGCGAAUGGGACCCA [U9C A45C] it is 0.957. To GGCCGGCAUGGUCCCAGCCUCGUCGCUGGCGCCGGCUGGGCAACAUUCCGAAGGGACCGUCCCCUCGGUAAUGGCGAAUGGGACCCA [C22G G52A] belongs 0.112; to GGCCGGCAUGGUCCCAGCCUCCUCGCUGGCGCCGGCUGGGCAACAUUCCGAAGGGACCGUCCCCUCGGUAAUGCCGAAUGGGACCCA [G52A G74C], 0.133. Regarding GGCCGGCAUGGUCCCAGCCUCCUCGCUGACGCCGGCUGGGCAACAUUCCGAGGGGAGCGUCCCCUCGGUAAUGGCGAAUGGGACCCA [G29A C57G], the self-cleavage was determined as 0.267. The figure for GGCCGGCAUGGUCCCAGCCUCCUCGCUGGCGCCGGCUGGGCAACAUUCCGAGGGGACCGUCACCUCGGUAAUGGUGAAUGGGACCCA [C62A C75U] is 0.108; for GGCCGGCAUGGUCCCAGCCUCCUCGCUGGCGCCGGCUGGGCAACAUUCCGAGGGGACCGUCCCCUCGGCAAUGGCGAAUGGGACCCA [U69C] it is 1.02; for GGCCGGCAUGGUCCCAGCCUCCUCGCUGGCGCCGGCUUGGCAACAUUCCGAGGGGACCGUCCCCUCGGUAAUGACGAAUGGGACCCA [G38U G74A] it is 0.0248.
